One test relates to mouse keratinocytes. The test can be described thus: Cell stiffness by atomic force microscopy (AFM). Type of test: cell-based. As for the experimental part: The stiffness of the mouse keratinocyte cells was measured using a Nanowizard IV BioAFM system (JPK Instruments, Germany). Confluent mouse kerantinocyte monolayers were cultured on a petri dish in PBS media. The monolayers were scratched across the center of the petri dish using a 100 μl pipette tip and characterised after 4 hrs. Indentations were performed on randomly selected cells at the wound edge with a polystyrene bead of diameter (˜4.5 μm) attached to the end of a cantilever (k=0.03 N/m, Novascan Technologies, Inc., Ames, Iowa) using a force of 3 nN at 1 Hz. More than 60 cells from triplicate experiments were characterized and averaged to evaluate the Young's modulus for each condition. Young's modulus values were calculated using JPK Data Processing Software (JPK Instruments, Germany), which employs Hertz's contact model for spherical indenters (diameter 4.5 μm; Poisson's ratio 0.5) fitted to the extend curves.

The next test relates to mouse skin punch wounds. Briefly: Punch-biopsy wound healing model, non-splinted. In kind it is in vivo. The procedure: Six to eight to week old female experimental ICR (nomenclature: IcrTac:ICR) mice purchased from InVivos were used for punch-biopsy wound healing in vivo assays. In the ex-vivo mouse skin explant assay, random ratios of male and female new born ICR mouse pups were used. Wherever possible, the experiments were performed taking into consideration an ethical and reductionist approach of animal usage. Animal studies were not performed in a blinded fashion. The animals were randomly assigned to different experimental groups. The number of animals used for each experiment is indicated in the legend as n=x mice per group. All animal experiments performed were done in accordance with experimental protocols reviewed by the Biological Resource Center (BRC), Agency for Science Technology and Research (A*STAR) under strict compliance to the Institutional Animal Care and Use Committee (IACUC) guidelines for ethical use of animal models in biological research.
The mice were housed under standard conditions of 21° C. and a 12 h light-dark cycle with free access to food. Subsequently, the mice were intraperitoneally (i.p.) anesthezised using Ketamine 100 mg/kg and Xylazin 10 mg/kg diluted in […] of saline solution. The fur was shaved from the base of the neck towards the back on the entire shoulder region. The skin was wiped with an alcohol swab and 10% povidone-iodine (Betadine) antiseptic solution. Circular symmetrical 4 mm wounds were inflicted on either side of the midline in the shoulder region using a sterile 4 mm punch biopsy needle (Integra Miltex, Integra York, P.A., Inc.). The wound skin was carefully removed using a scalpel and a pair of scissors to generate a full-thickness wound that were left open for topical administrations during the analysed time periods. For splinted wound healing models, a 10 mm transparent donut shaped nylon sheet (Grace Bio-Laboratories, Bend, Oreg.) was placed around the 4 mm wound. The splint was placed with the wound at the center, glued to the skin by adhesive (Krazy Glue®; Elmer's Inc.), and covered by Tegaderm dressing. The wounds were treated with different formulations based on either petroleum jelly (Vaseline), a thermoresponsive hydrogel (Pluronic F127-Sigma) or a commercially available skin ointment (Aquaphore-Beiersdorf, Inc.). For Vaseline based ointment cream preparation, 10 mg per cm^2 vaseline ointment was mixed with filtered PBS solutions containing the indicated amounts of Agrin (100 μg, 200 μg or 500 μg) and 100 μg BSA (w/w) were used and applied topically every two days. For siRNA mediated knockdown experiments, 75 nM of indicated siRNAs were incubated with lipofectamine in PBS. Subsequently, a 1:1 mixture of PBS (containing the siRNAs): Aquaphore was applied topically on the wound region every two days. A topical formulation comprising of 20% (w/w) Pluronic F127 (Sigma) was used to dissolve in sterile and 0.22μ filtered solution containing a final concentration of 200 μg/ml sAgrin or BSA. This mixture was dissolved overnight at 4° C. to ensure that liquid phase is achieved. The mixture forms a homogenous gel at temperatures above ˜20° C. and was dispersed topically to cover the wound. Wound closure was assessed using a Vernier caliper every alternate day. For both models, the animals were caged individually throughout the observed time-points of healing at the institutional animal facility. All wound healing animal experiments performed were done in accordance with experimental protocols reviewed by the Biological Resource Center (BRC), Agency for Science Technology and Research (A*STAR) under strict compliance to the Institutional Animal Care and Use Committee (IACUC) guidelines for ethical use of animal models in biological research.
Human skin equivalents and mice skin tissues were harvested, embedded, and subjected to routine histology using Hematoxylin and Eosin. For immunostaining, the tissues were fixed for 24 h in 10% neutral buffered formalin solution. […]

B1: sAgrin: C-terminus recombinant Agrin fragment containing 8 amino acid 'Z8' insert and LG3 domain (SEQ ID NO: 7), His-tagged, expressed in E. coli (protein)
chain: DTLAFDGRTFVEYLNAVTESELANEIPVEKALQSNHFELSLRTEATQGLVLWSGKATERADYVALAIVDGHLQLSYNLGSQPVVLRSTVPVNTNRWLRVVAHREQREGSLQVGNEAPVTGSSPLGATQLDTDGALWLGGLPELPVGPALPKAYGTGFVGCLRDVVVGRHPLHLLEDAVTKPELRPCPTP
modifications: His tag
As to B1, the “stiffness of migrating MMP12 knockdown keratinocytes” value in the test with mouse keratinocytes (4 h post-injury, sAgrin treatment) is “not restored by sAgrin treatment”. Also, in the test with mouse keratinocytes (Agrin knockdown rescued with 10 μg/ml sAgrin, 4 h post-wound scratch, control ~2.1, knockdown ~0.9 KPa), the “stiffness of migrating keratinocytes” value is about 1.5 KPa. Also, in the test on mouse skin punch wounds (day 2), the “migratory epithelial tongue from wound edges” value is on record as “significant extension of the migratory epithelial tongue”. Further, the “K17 outgrowth, MMP12 expression and pMLC activation” value with mouse skin punch wounds (day 2, wound edges and beds) was “robust K17 expressing keratinocyte outgrowth, MMP12 expression and pMLC activation”. Also, the “angiogenesis (blood vessel number and diameter)” value in the test on mouse skin punch wounds (day 6) was “steady enhancement in angiogenesis with an increased number of blood vessels and their respective diameters”. The “Ki67+ve proliferating cells” value in the test with mouse skin punch wounds (day 7 post-injury) is recorded as “enhancement of Ki67+ve proliferating cells”. Moreover, in the test on mouse skin punch wounds (sAgrin 200 μg vs control hydrogel), the “rates of wound healing, Pluronic F-127 hydrogel” value is recorded as “significantly boosted the rates of wound healing in vivo”. Besides, the “healing rates of punch wounds, Vaseline ointment” value in the test on mouse skin punch wounds (sAgrin 100, 200 or 500 μg in Vaseline vs BSA) is given as “significantly accelerated the healing rates of mice punch wounds in a dose-dependent fashion”.
